We go through 2 substances from paper PMC10550955.

For one test, the target named is β-cas. Kind of test: SPR; homotypic: protein immobilised on CM5 or CM3 chip (~800-1000 RU), the same protein injected at increasing concentrations; BIAcore T200; 20 mM sodium phosphate buffer, pH 7.4; two-state model, one-state model for α-Syn and Chymo. A general note: SPR reads the build-up and loss of mass on a sensor chip optically.
For a further test, the target named is γ-globulin. The test is described as above.

For orientation: pKd means the negative decadic logarithm of the Kd, by convention in mol/L. Low values mean a large Kd, high ones a small Kd.

pKd: −log10 of the molar value.

β-cas (natural protein) gave a pKd in the test with β-cas above 6.30.

γ-globulin (natural protein): in the test with γ-globulin, the pKd is above 6.30.
